# From US20170137512A1
# Where two headings read alike, the source gives them in different places.
# T1: cyno Kv1.3 (Macaca fascicularis)
# T1 chain: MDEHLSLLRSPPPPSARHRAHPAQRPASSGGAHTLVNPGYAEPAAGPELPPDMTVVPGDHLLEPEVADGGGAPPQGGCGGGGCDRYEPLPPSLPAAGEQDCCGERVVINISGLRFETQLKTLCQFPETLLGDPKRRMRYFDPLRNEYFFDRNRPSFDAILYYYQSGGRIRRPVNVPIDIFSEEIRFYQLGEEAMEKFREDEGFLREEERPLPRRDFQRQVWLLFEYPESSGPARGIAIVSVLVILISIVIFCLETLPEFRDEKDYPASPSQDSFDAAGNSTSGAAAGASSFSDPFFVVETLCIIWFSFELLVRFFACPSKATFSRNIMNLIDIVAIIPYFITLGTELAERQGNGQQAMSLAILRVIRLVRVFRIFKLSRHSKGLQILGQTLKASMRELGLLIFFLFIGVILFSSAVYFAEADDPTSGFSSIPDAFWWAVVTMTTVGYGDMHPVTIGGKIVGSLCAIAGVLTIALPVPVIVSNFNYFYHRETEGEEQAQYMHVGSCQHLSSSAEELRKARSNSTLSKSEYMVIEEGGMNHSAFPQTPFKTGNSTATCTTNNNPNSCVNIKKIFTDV
# B1: A0194016B04 (VHH, not shown: small tags and cut ends)
# VHH: EVQLVESGGGLVQAGGSLRLSCSASGLLFSVNSAGWYRQAPGKQRDFVARIRSGGSTNYADSVKGRFTISRDKATNTLYLQMNNLKPEDTAVYYCSSWRTEAYEYWGRGTLVTVSS
# B2: A0194020A06 (VHH, not shown: small tags and cut ends)
# VHH: EVQLVESGGGLVQAGGSLGLSCSASGLLFSRNSAGWYRQAPGKRREFVARIRMGGSINYADSVKGRFTVSRDNAKNMMYLQMNDLKPEDTAVYFCSGWREGFYEYWGQGTLVTVSS
# Key:
# [1] = biological target: human Kv1.3 (Homo sapiens) (UniProt P22001); assay: cell-based or functional assay
# [2] = biological target: human Kv1.3 (Homo sapiens), P22001
# [3] = biological target: T1, cyno Kv1.3 (Macaca fascicularis)
# [4] = biological target: human Kv1.3 (Homo sapiens), P22001; assay: cell-based or functional assay
# [5] = biological target: human Kv1.3 (Homo sapiens), P22001; remark: listed apart in the source
# [6] = biological target: human Kv1.3 (Homo sapiens), P22001; assay: cell-based or functional assay; remark: listed apart in the source
# [7] = biological target: T1, cyno Kv1.3 (Macaca fascicularis); assay: titration of radiolabeled margatoxin on CHO-cyKv1.3 cells
binder,measurement,setting,value
B1,"Average IC50, Kv1.3 current, IonFlux automated patch clamp, HEK293H cells",[1],84000 pM
same,"Average IC50, Kv1.3 current, IonWorks perforated patch clamp, CHL cells",[1],34000 pM
"RSCIDTIPKSRCTAFQCKHSMKYRLSFCRKTCGTC (modifications not checked) [ShK-1aJ (Smartox, #08SHK001), P29187 1-35]",IC50 (read off the curve),[2],10000 pM
same,IC50,[3],240 pM
same,"Average IC50, Kv1.3 current, IonFlux automated patch clamp, HEK293H cells",[4],76 pM
same,"Average IC50, Kv1.3 current, IonWorks perforated patch clamp, CHL cells",[4],400 pM
same,"IC50, CD25 read out, CCR7-CD45RA- T cells stimulated with anti-CD3",[4],270 pM
same,"IC50, CD25 read out, T cell activation assay",[4],730 pM
same,"IC50, CD25 read out, T cell activation assay, with 10 µM HSA",[4],38 pM
same,"IC50, IFNγ production, T-cell activation assay",[4],41 pM
same,"IC50, IFNγ read out, CCR7-CD45RA- T cells stimulated with anti-CD3",[4],76 pM
same,"IC50, IFNγ read out, T cell activation assay",[4],140 pM
same,"IC50, IFNγ read out, T cell activation assay, with 10 µM HSA",[4],27 pM
same,% inhibition,[5],102%
same,"IC50, CD25 read out, CCR7-CD45RA- T cells stimulated with anti-CD3",[6],220 pM
same,"IC50, IFNγ read out, CCR7-CD45RA- T cells stimulated with anti-CD3",[6],65 pM
B2,"Average IC50, Kv1.3 current, IonFlux automated patch clamp, HEK293H cells",[1],13400 pM
same,"IC50, CD25 read out, CCR7-CD45RA- T cells stimulated with anti-CD3",[1],36000 pM
same,"IC50, IFNγ read out, CCR7-CD45RA- T cells stimulated with anti-CD3",[1],30000 pM
"TIINVKCTSPKQCLPPCKAQFGQSAGAKCMNGKCKCYPH (modifications not checked) [unlabeled margatoxin (Alamone labs, Cat RTM-325), P40755 1-39]",IC50,[3],240 pM
same,"IC50, IFNγ read out, CCR7-CD45RA- T cells stimulated with anti-CD3",[4],94 pM
"TIINVKCTSPKQCLPPCKAQFGQSAGAKCMNGKCKCYPH (modifications not checked) [125I-margatoxin (Perkin Elmer, NEX083), P40755 1-39]",EC30,[7],150 pM
